In patent US20260174875A1 (Novo Nordisk A/S, priority 2023, published 2026):
Numbered stars: 1 amine (or outer) side, 2 acyl side, 3 side chain; on linkers, the order of the positions; unused ones are H or OH. Square brackets hold non-standard residues; d marks the D form. Side chains are listed from the residue outwards. * marks the point of attachment. C20 diacid = O=C(O)CCCCCCCCCCCCCCCCCCC(=O)*; C16 diacid = O=C(O)CCCCCCCCCCCCCCC(=O)*; γGlu = O=C(O)[C@H](CCC(=O)[*:2])N[*:1]; Chem. 28 = not defined here; AEEA = NCCOCCOCC(=O)O; Aib = CC(C)(N)C(=O)O

T1: human amylin-3(a) receptor (human, UniProt P30988 25-474; O60896 24-148)
T1 sequence (looked up) 1: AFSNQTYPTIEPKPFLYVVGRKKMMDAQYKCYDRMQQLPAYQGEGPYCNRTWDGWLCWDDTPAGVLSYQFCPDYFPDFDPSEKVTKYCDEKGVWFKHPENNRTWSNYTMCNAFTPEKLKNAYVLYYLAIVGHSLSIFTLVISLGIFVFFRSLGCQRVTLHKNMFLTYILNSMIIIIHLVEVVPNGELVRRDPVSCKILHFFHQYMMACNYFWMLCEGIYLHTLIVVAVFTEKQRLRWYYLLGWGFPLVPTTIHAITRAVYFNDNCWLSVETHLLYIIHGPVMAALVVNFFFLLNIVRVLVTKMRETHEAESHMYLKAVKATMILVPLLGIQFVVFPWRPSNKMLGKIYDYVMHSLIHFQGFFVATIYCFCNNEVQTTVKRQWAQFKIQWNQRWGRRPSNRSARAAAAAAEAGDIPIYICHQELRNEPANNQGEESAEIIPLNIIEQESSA
T1 sequence (looked up) 2: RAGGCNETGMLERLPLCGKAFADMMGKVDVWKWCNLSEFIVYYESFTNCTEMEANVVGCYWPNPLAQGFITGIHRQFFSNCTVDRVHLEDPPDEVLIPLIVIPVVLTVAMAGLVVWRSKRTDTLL

T2: human GIP receptor (human, UniProt P48546 22-466)
T2 sequence (looked up): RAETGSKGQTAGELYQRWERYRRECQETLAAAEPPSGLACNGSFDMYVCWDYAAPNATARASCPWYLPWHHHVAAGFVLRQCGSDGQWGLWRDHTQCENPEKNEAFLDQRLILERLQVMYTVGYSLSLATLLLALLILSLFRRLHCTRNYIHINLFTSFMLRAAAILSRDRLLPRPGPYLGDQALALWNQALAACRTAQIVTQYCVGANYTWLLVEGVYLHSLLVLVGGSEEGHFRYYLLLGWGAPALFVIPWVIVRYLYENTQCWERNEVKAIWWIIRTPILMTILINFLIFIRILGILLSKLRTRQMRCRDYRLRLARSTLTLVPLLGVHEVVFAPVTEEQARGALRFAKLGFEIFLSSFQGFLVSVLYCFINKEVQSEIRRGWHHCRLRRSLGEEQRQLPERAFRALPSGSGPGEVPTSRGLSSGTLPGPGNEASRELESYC


Experiments:
Experiment in all cases: cell-based or functional assay
[1] = molecular target: T1, human amylin-3(a) receptor
human GIP receptor [2] = molecular target: T2, human GIP receptor
human GLP-1 receptor [3] = molecular target: T3, human GLP-1 receptor (human, UniProt P43220 24-463)
[4] = molecular target: T1, human amylin-3(a) receptor; remark: listed apart in the source
human GIP receptor [5] = molecular target: T2, human GIP receptor; remark: listed apart in the source
human GLP-1 receptor [6] = molecular target: T3, human GLP-1 receptor; remark: listed apart in the source

Row | Binder | hAMYR3 Potency, 1% HSA, EC50 [pM] [1] [pM] | hGIPR Potency, 1% HSA, EC50 [pM] (human GIP receptor [2]) | hGLP-1R Potency, 1% HSA, EC50 [pM] (human GLP-1 receptor [3]) | hAMYR3 Potency, no HSA, EC50 [pM] [4] [pM] | hGIPR Potency, no HSA, EC50 [pM] (human GIP receptor [5]) | hGLP-1R Potency, no HSA, EC50 [pM] (human GLP-1 receptor [6])
1 | Compound 60 (peptide) peptide: Y[Aib]EGTFTSDYSILLEEQAAREFIEWLLAGGPSSGALAQTLAQTLASHLSTAQTQRLSAELHK([AEEA-AEEA-γGlu-C20 diacid])LATLPRTETGSGSP-NH2 | 191 | 28.3 | 173 | 3.85 | 6.06 | 94.4
2 | Compound 51 (reading uncertain) peptide: H[Aib]HGTFTSDYSILLEEQAAREFIEWLLAGGPSSGALAQTLAQTLASHLSTAQTQRLSAELHK(Chem. 28)LATLPRTETGSGSP-NH2 | 57.1 | 61.9 | 32.2 | 6.19 | 8.37 | 7.68
3 | Compound 55 (reading uncertain) peptide: Y[Aib]EGTFTSDYSILLEEQAAREFIEWLLAGGPSSGAGQAPGQAPGASHLSTAQTQRLSAK(Chem. 28)LHRLATLPRTETGSGSP-NH2 | 34 | 10.3 | 45.3 | 2.22 | 3 | 23
4 | Compound 56 (reading uncertain) peptide: Y[Aib]EGTFTSDYSILLEEQAAREFIEWLLAGGPSSGAGQAPGQAPGASHLSTAQTQRLSAELHRLK(Chem. 28)TLPRTETGSGSP-NH2 | 44.9 | 8.48 | 58.4 | 2.36 | 2.65 | 18.2
5 | Compound 62 (peptide) peptide: H[Aib]HGTFTSDYSILLEEQAAREFIEWLLAGGPSK([AEEA-AEEA-γGlu-C16 diacid])GEASQLSTAALGRLSAELHRLADLPRTETGSGSP-NH2 | 28.8 | 47.2 | 11.5 | 3.35 | 2.26 | 4.13
6 | Compound 53 (reading uncertain) peptide: Y[Aib]EGTFTSDYSILLEEQAAREFIEWLLAGGPSSGAGQAPGQAPGASHLSTAALGRLSAELHK(Chem. 28)LATLPRTETGSGSP-NH2 | 75.9 | 14.6 | 79.2 | 3.22 | 3.25 | 23.3
7 | Compound 49 (reading uncertain) peptide: Y[Aib]EGTFTSDYSILLEEQAAREFIEWLLAGGPSSGAPPPSGGGEASHLSTAQTQRLSAELHK(Chem. 28)LATLPRTETGSGSP-NH2 | 106 | 16.7 | 110 | 1.85 | 4.36 | 33.3
8 | Compound 58 (reading uncertain) peptide: Y[Aib]EGTFTSDYSILLEEQAAREFIEWLLAGGPSSGAGQAPGQAPLASHLSTAQTQRLSAELHK(Chem. 28)LATLPRTETGSGSP-NH2 | 134 | 7.58 | 25.6 | 2.91 | 1.88 | 12.7
9 | Compound 59 (peptide) peptide: Y[Aib]EGTFTSDYSILLEEQAAREFIEWLLAGGPSSGALAQTLAQTLASHLSTAQTQRLSAELHK([AEEA-AEEA-γGlu-C16 diacid])LATLPRTETGSGSP-NH2 | 24.2 | 27.2 | 39.8 | 3.85 | 7.72 | 50.6
10 | Compound 50 (reading uncertain) peptide: Y[Aib]EGTFTSDYSILLEEQAAREFIEWLLAGGPSSGEASHLSTAQTQRLSAELHK(Chem. 28)LATLPRTETGSGSP-NH2 | 185 | 15.1 | 66.3 | 3.2 | 2.36 | 16.2
11 | Compound 52 (reading uncertain) peptide: Y[Aib]EGTFTSDYSILLEEQAAREFIEWLLAGGPSSGAGQAPGQAPGASHLSTAQTQRLSAELHK(Chem. 28)LATLPRTETGSGSP-NH2 | 119 | 6.79 | 26.9 | 2.85 | 1.83 | 11
12 | Compound 57 (reading uncertain) peptide: Y[Aib]EGTFTSDYSILLEEQAAREFIEWLLAGGPSSGAGQAPGQAPGASHLSTAQTQRLSAELHRLATLPK(Chem. 28)TETGSGSP-NH2 | 85 | 5.85 | 29.6 | 3 | 1.98 | 12.8
13 | Compound 61 (peptide) peptide: H[Aib]HGTFTSDYSILLEEQAAREFIEWLLAGGPSK([AEEA-AEEA-γGlu-C16 diacid])GAPPPSGGGEASHLSTAQTARLSAELHRLADLPRTETGSGSP-NH2 | 30.8 | 16 | 14.7 | 2.97 | 1.3 | 2.79
